Laboratory results from publication PMC7065271 (Chemico-biological interactions, 2020).

Target: the molecule itself
Experiment: SEC

B1: Torpedo californica acetylcholinesterase tetramer (enzyme, UniProt P04058-2 22-596, looked up)
chain: DDHSELLVNTKSGKVMGTRVPVLSSHISAFLGIPFAEPPVGNMRFRRPEPKKPWSGVWNASTYPNNCQQYVDEQFPGFSGSEMWNPNREMSEDCLYLNIWVPSPRPKSTTVMVWIYGGGFYSGSSTLDVYNGKYLAYTEEVVLVSLSYRVGAFGFLALHGSQEAPGNVGLLDQRMALQWVHDNIQFFGGDPKTVTIFGESAGGASVGMHILSPGSRDLFRRAILQSGSPNCPWASVSVAEGRRRAVELGRNLNCNLNSDEELIHCLREKKPQELIDVEWNVLPFDSIFRFSFVPVIDGEFFPTSLESMLNSGNFKKTQILLGVNKDEGSFFLLYGAPGFSKDSESKISREDFMSGVKLSVPHANDLGLDAVTLQYTDWMDDNNGIKNRDGLDDIVGDHNVICPLMHFVNKYTKFGNGTYLYFFNHRASNLVWPEWMGVIHGYEIEFVFGLPLVKELNYTAEEEALSRRIMHYWATFAKTGNPNEPHSQESKWPLFTTKEQKFIDLNTEPMKVHQRLRVQMCVFWNQFLPKLLNATETIDEAERQWKTEFHRWSSYMMHWKNQFDHYSRHESCAEL
In the case of B1, the “stoichiometry N” value is reported as 4.
